Assay results from PMC3766608, “Thermal Stability of Glucokinases in Thermoanaerobacter tengcongensis” (BioMed Research International, 2013).

Assays:
Assay type in all cases: biochemical, Caldanaerobacter subterraneus
[1] = substrate: Nc1ncnc2c1ncn2[C@@H]1O[C@H](COP(=O)(O)OP(=O)(O)OP(=O)(O)O)[C@@H](O)[C@H]1O; assay: purified protein; details: glucose as co-substrate, Mg2+, Tris-HCl pH 8.0, 75 °C
[2] = substrate: Nc1ncnc2c1ncn2[C@@H]1O[C@H](COP(=O)(O)OP(=O)(O)O)[C@@H](O)[C@H]1O; assay: purified protein; details: glucose as co-substrate, Mg2+, Tris-HCl (pH optimum 8.0, T opt 80 °C)
[3] = substrate: Nc1ncnc2c1ncn2[C@@H]1O[C@H](COP(=O)(O)OP(=O)(O)OP(=O)(O)O)[C@@H](O)[C@H]1O; assay: coupled enzyme assay; details: Mg2+, Tris-HCl, sugar co-substrate not stated for this constant (pH optimum 7.5, T opt 70 °C)
Excerpt: coupled enzyme assay on TTE2418 (glu/man-NacK)

B1: TTE0090 (ATP-GLK) (Caldanaerobacter subterraneus subsp. tengcongensis MB4) (protein)
chain: MKKFLCGVDLGGTKISTGIVDENGNIIKSIKIPTMAEKGPDVVIERIEESIYQVLKDTGLEMSNLKGIGIGSPGPLNAKKGIVISPPNLPHWSNVPIVEILSKRLGIEVRLENDANAAAIGEHLFGSGRGVDNFVYITVSTGIGGGVIIEGKLYSGENSNAAEIGHHTINFDGPRCNCGNYGCFEAYASGTAIARFAREGIEKGIKTKIKELAGEGEVKAEHVFEAAKLGDEFAKELVEKEAFYLGVGIANIMAFYNPRKIAIGGGVSAQWDMLYEKMMETVRKKALKPNAEVCEVVKAQLGENIGVLGAAALLL
notes: recombinant, His-tagged
[1]
  Km: 2600 µM
  Vmax: 100/ND

B2: TTE1961 (ADP-GLK) (Caldanaerobacter subterraneus subsp. tengcongensis MB4) (protein)
chain: MRIGVDLGGTNIAVGLVEEDGKIIATGSRPTKPERGYEAIARDIAELSFELLQRMGISVKDVKSMGIGVPGVADNEKGIVIRAVNLFWTKVPLAKEIRKYIDLPIYMENDANVAALAEATFGAGRGSKSSVTITLGTGVGSGFILDGKIYSGAHHFAPEIGHMVIGDNGIRCNCGKIGCFETYASATALIREGKKAAKRNPNTLILKFANGDIEGITAKNVIDAAKQYDEEALKIFEEYVKYLAVGIVNIINLFDPEVIILGGGVANAGDFLLKPLKKEVAENILFKELPYADIRKAELGNDAGIIGAAILS
notes: recombinant, His-tagged
[2]
  Km: 900 µM

B3: TTE2418 (glu/man-NacK) (Caldanaerobacter subterraneus subsp. tengcongensis MB4) (protein)
chain: MKVIGVDIGGTKILGGLIDERGNLLEETLVYTKAHLGREKILENLFIAIDKLIDKDVKGIGIGSAGRINFKEGIVEYATDNLPGWTGCNLKQLLEDRYKIPVIADNDVNAAVIGEIWQGAGRGYKDIVMIAIGTGVGGAIVYNGEVIRGGSWSAGEIGHMILYPKGRQCNCGQRGCLEQYVSGTAIARTYSEVSKEKKIAGAEEVFLLAEKGDKMALEIVNDFVNSLSIAILSLKNLLDPEIFIIGGGVIGAKRVWWDKLKKTLENRASITPAQLENKATMVGAAKLIIDYLSKNN
notes: recombinant
[3]
  Km: 1900 µM
  Vmax: 51/ND
